Among the data in a protein production outcome set (Wang et al. 2014) are protein production values, retold here.

A short description of the data set: label from the status in PepcDB records.

As to “MVQSQSLSTLTICGSVKVSSLLRNRLNSVKASSLIGDRCVSCQFLRKSPSFRSHWKSLKQRNLLRVEARWPFQGGGEQGLDPSSERSESANEDILIFFFQLDLATRVQVKTKCRVFISFKMVANGFDVLQY”, the protein production entry is recorded as “failed”.

For “MVRCVRLVEAGSVVRYLSTSICRPVVDAGSRALCLQEWADSQQVKEKQYSRDVQRAAALNIYRIPPSSRKPALCPTPRDRLEYDEDRLEHIAYVRARELHTLEVTGLETVAQSKAHVASLEGLIPEDKVVLLAGSPLQNEATLGQCGVEALTTLEVVGRRLGGNNCLSLQVNPVQPARYLWTTLHSSKQGEPNSSANHRCS”, the protein production entry was “failed”.

In the case of “MVRDIEDEIRDEKNPRPLDEDDIALLKTYGLGPYSAPIKKVEKEIKDLAKKINDLCGIKESDTGLAPPSQWDLVSDKQMMQEEQPLQVARCTKIISPNTEDAKYVINVKQIAKFVVGLGDKVSPTDIEEGMRVGVDRNKYQIQIPLPPKIDPSVTMMTVEEKPDVTYNDVGGCKEQIEKMREVVELPMLHPEKFVKLGIDPPKGVLCYGPPGTGKTLLARAVANRTDACFIRVIGSELVQKYVGEGARMVRELFQMARSKKACIVFFDEVDAIGGARFDDGVGGDNEVQRTMLEIVNQLDGFDARGNIKVLMATNRPDTLDPALLRPGRLDRKVEFGLPDLESRTQIFKIHTRTMNCERDIRFELLARLCPNSTGADIRSVCTEAGMYAIRARRKTVTEKDFLDAVNKVIKGYQKFSATPKYMVYN”, the protein production result is given as “failed”.

“MVRETYALLTGLFVVILGSALIGIALVLGDYGTERDVYVVSTQGAVSGLNPESLVIFRGVRAGKVASISFAPHDPRTILVRIEVDKGLPITRGTYATLRVQPLTGLAQIDLSDEGNDPEPLRTDPRNPANIPLRPSLLDKLTGSGSDILTQIAQLTSRLNALLDDGNRQRIAHTLESLDTAADELVRLERYIEEGLERIPILDGRLRQALADHSAMARDVRETSRQVRALSESAQKVVDIGAAASDTLIRSRLPELDALIDDAAHTAASLRRLSKTLERDPQTLLLGPAPGLPGPGEPGFQEPK”: the protein production result is “failed”.

For “MVRLLHVSFVSHGAAWLPIHSCTGSHGQCERRAAGGPEAWATTPSLAAMPIDTRARQPSCDNRVMNDAALAPDVSAALERGLQAQSLDTAFAAPLLRYLALLVRWNKTYNLTAVRDPRAMVTRHLLDSLAMQPYIASGMLADLGTGPGLPGIPLAITRPQLQVTLVESNGKKARFMREALRHLELRNARVAESRAEALDEPTAYDHLTARALDTLAGIIAVGGHLLRPGGSLLAMKGIYPHEEIAALPEGWTMSEVHQLQVPGLDGERHLVVVRKA”, the protein production entry is “failed”.

As for “MVRRLTNGRWGLTLLILALMYIIALGLMARPAAADPGITLVLNGSRVNPSVPAYTDSNGRTMVPVRFVMEHMGGRVEWLDAEQGIVVSRGATTLKMWIGKRQAQVNGQAIDLDTVPVLQDGTSMVPVRFVAQAFGGKVEWDDASRTVSIWLGTASPAGQVRITGSYVNVRTGPGTSYGVIDVLPRDTLVQLLATGDGWYQVQLPDGRQGWVSASYSEVLQGNNQPQDTNPPGNNQPGNGQSPGNNPSPGNNQPGNEEPPSGQPLGTAIIGNKPVAILAGPNPVEKQVGMAPAGSRLPIWQQQGDWWLVELDNGLRGWLASSLATFSPEKPGQDNGGSETGNGGTAPGEGNQGVGNSDSNSLKITGVTVNPGPDWIEVTVQGTRPFTFKSSRWADHLIFDIPGATLAVAPGQDKVEVNRQPLARVRLGQYDANTVRVVCDLNGAANFTTTTAGSTITIRLQKPSVRGAKIVIDPGHGTDPQGSDPGAIGPSGVQEKDVNLAISRKLAELLRAAGATVYMTRDGETTPYTLSGRAYYANEVGADLFICIHSNASLSPSASGTSTYFYAPPGTALGEQRDARQRLATLIQRDLVAAIGRRDLGVKEANFAVLRNTKMPSVLVETAFISNPTEEQLLASPDFQALVAQGIFNGISDYLSGQ”, the protein production result is listed as “failed”.

For the sequence “MVSCSNQQTQTKAITVSDTTLLSAEEFSQKIKKEPNALILDVRTPEEFSEAHIANATNVNWKDNFASGITEVNKNQPVLVYCLSGGRSASASDYLRKNGYTQVYELQGGLLKWQASNFEVVADTVTAAQDSGMTLQQFEALLVTDKYVLIDFYATWCGPCKMMEPALEDIAATMSDKVIVVRIDVDKNEELSKHFEVESLPTVQIYKNKKLVWEDIGYKTKKQLVSQLK”, the protein production entry was “failed”.
